Source: the supplement of paper PMC9170038

System: MS2 coat protein
Assay: apparent KD of MS2 coat protein; designed switch direction (-1 OFF switch, 1 ON switch): -1; higher = weaker reporter binding
Summary of the method: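 Each step of the titration lasted 0.8–1.5 h at the lowest concentration and 10–20 min at the highest. The protein, SNAP-549-labelled MS2 coat protein, went from 0.7 or 1.5 nM doubling to 3 µM over RNA switches transcribed on Illumina chips by stalled E. coli RNA polymerase. Normalised cluster fluorescence was curve-fitted, and the per-design median over clusters is given as apparent KD.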

[1] = input ligand: microRNA oligo, concentration not stated
[2] = Eterna round: R95, input ligand: FMN 200 uM
[3] = Eterna round: R95, input ligand: microRNA oligo, concentration not stated
[4] = Eterna round: R95, input ligand: none

Sequence | apparent KD of MS2 coat protein (input ligand: FMN 200 uM) [nM] | apparent KD of MS2 coat protein (input ligand: none) [nM] | apparent KD of MS2 coat protein [3] [nM] | other results
GCGGACUUGAUCGUGAGAUCAGAGACAUGAGGAUCACCCAUGUAGGAUAUCGAUUCGUUUCGAAUCGAGAAGGGCGUGGUCCGC [JL denovo 15] (Eterna round: R96, puzzle: Exclusion NG 3) | 83.9 | 70.2 | – | apparent KD of MS2 coat protein [1]: 52.2 nM
AGUACUAACACGAAAGUGUUCGUACAAUAAGCUUGUGAAACAUGAGGAUCACCCAUGUCCUCAUAAGCUCGUCUUAU [salish99_TOv2_r3_037] (puzzle: Sensor v3, turn-off variant 2) | – | – | 810 | apparent KD of MS2 coat protein [2]: 16.6 nM; apparent KD of MS2 coat protein [4]: 15.6 nM
GAUGAGCAUGUCAGGAUAUCCACUCUAAUAAAACAGGAGAAGGGACAUGAGGAUCACCCAUGUUCUAGACAUGA [Latealedi] (puzzle: Brourd's mod of Exclusion 4) | – | – | 13.1 | apparent KD of MS2 coat protein [2]: 14.5 nM; apparent KD of MS2 coat protein [4]: 14 nM
AAUCCACAUGAGGAUCACCCAUGUGAGGAUAUGAUACUAUGUACUUCGGUACAUAGUAUCAGAAGGCACAUAAA [Ex1-3: 51] (puzzle: Exclusion 1) | – | – | 28.4 | –
UCCUGACAUGAGGAUCACCCAUGUGAGGAUAUGUGGAUCGAGACAACUCUCGGUCCGUGCAGAAGGCACAGGGC [EX1 A.20] (Eterna round: R97, puzzle: Exclusion 1) | 28.1 | 20.3 | – | –
GUCGUGCAGCUUUGCUGUACGAGUACAUGAGGAUCACCCAUGUAGGAUAUGGUACGCUUUGCGUGCUAGAAGGAUAUGUGUAGG [salish99_ExNG3_r04_501] (Eterna round: R96, puzzle: Exclusion NG 3) | 49.3 | 44.3 | – | apparent KD of MS2 coat protein [1]: 41.7 nM
UCGCGCCAAGGAUAUACAUGAGGAUCACCCAUGUUGAAAGAAAAGUUGUCCGGUCCCAGUAGAAGGUGGUUCCC [Eternabot (L2) Solution 90] (Eterna round: R97, puzzle: Exclusion 3) | 23.5 | 58.4 | – | –
AGUAACAGAGGAUAUACUAUUUUAUGUAUUUAUUAUUUUAAACAUGAGGAUCACCCAUGUAGAAGGCUGAAUGA [JMF 97] (puzzle: Exclusion 2) | – | – | 21.1 | –
CCAAGCUUUUUCAUUAACAACAUGAGGAUCACCCAUGUUUAAGCUAUUACUUUUGGGCUCUUUAGUGCUAGUCUUAU [JR_STOV1_Sub039] (Eterna round: R97, puzzle: Sensor, turn-off variant 1) | 18.6 | 19.4 | – | –
ACAAGCUUUAGGCGUGUGAACAUGAGGAUCACCCAUGUAUUUUUGGUUAGGAGUUCUGUAAGGGAUGCUCGUCUUAU [JR_SWV3TOV1_Sub091] (puzzle: Sensor v3, turn-off variant 1) | – | – | 55.1 | apparent KD of MS2 coat protein [2]: 42.2 nM; apparent KD of MS2 coat protein [4]: 48.9 nM
AAACAGCGAGGAUAUGCAGACGCUCCUUCCUCACGUCAAGGACAUGAGGAUCACCCAUGUAGAAGGCGCACAAC [Isriteti] (Eterna round: R97, puzzle: Exclusion 2) | 116 | 76 | – | –
ACGACUGGAGGAUAUGCUCUGGGAGCGAUCGUAUAAGCAGUACUUGAGGAUCACCCAAGUAGAAGGUCAGCUCG [Riorus] (Eterna round: R97, puzzle: Exclusion 2) | 140 | 37.6 | – | –
GCCUCACUUGAGGAUCACCCAAGUCAGGAUAUUCACGGAACUAUGUAGCAGUUCGGCCGGAGAAGGGAUUCGGG [Areses] (Eterna round: R97, puzzle: Exclusion 1) | 88.4 | 35 | – | –
AAUAGCAAGUAGAUCCUAAACAUGAGGAUCACCCAUGUGCUCGUCUUGUAAAGUACUAUCACGAAAGUGAUAGUACA [Sensor 3, v1 - 57] (puzzle: Sensor v3, turn-off variant 1) | – | – | 300 | apparent KD of MS2 coat protein [2]: 151 nM; apparent KD of MS2 coat protein [4]: 233 nM
AAGAAACAUGAGGAUCACCCAUGUGAGGAUAUGAUAUGCUAAGCGUAAGCUUAGUAUAUCAGAAGGCACAAAGG [Salishxlusion 1 - Jieux - Exclusion 1] (Eterna round: R97, puzzle: Exclusion 1) | 319 | 120 | – | –
AAUUCACAUGAGGAUCACCCAUGUCAGGAUAUGGUGACGCGGGUUUCGGUGCGUGUUGCCAGAAGGGACGGCUG (puzzle: Exclusion 1) | – | – | 92.4 | –
UACUUCCGAGGAUAUACAUGAGGAUCACCCAUGUGCUUCAGCAUCUAAUGAUGCAUGGGUAGAAGGCGGUAGUU [LRO-Excl3-20] (puzzle: Exclusion 3) | – | – | 56 | –
UUAUACAAGCAAAGAUCCCACAUGAGGAUCACCCAUGUGCUCGUCUUAUAAGGUACUGUGACGAAAGUCACGGUACC [Eli 87 + Mat D67 6] (Eterna round: R97, puzzle: Sensor, turn-off variant 1) | 42.3 | 41.6 | – | –

Sequence | apparent KD of MS2 coat protein (input ligand: FMN 200 uM) [nM] | apparent KD of MS2 coat protein (input ligand: none) [nM] | apparent KD of MS2 coat protein [3] [nM] | other results
CAAAAGCGAGGAUAUACAUGAGGAUCACCCAUGUGGCAGCCAUGUAGGAGUGACGUCGGUAGAAGGCGCACCCU [Soaran] (puzzle: Exclusion 3) | – | – | 76.2 | –
GGCGCCUCAGGAUAUCAGUCUGGAUCAGAAUAGAUCCUGACUGAGAAGGGACAUGAGGAUCACCCAUGUUCGCC [Eli 4x 4.29] (Eterna round: R97, puzzle: Exclusion 4) | 20.8 | 18.9 | – | –
CCGGAAAUGUAGGAUAUAGGAGUCGAUAGACACCUAGAAGGGCAUACAUGAGGAUCACCCAUGUGUCCUACCGG [Fiskers Ex 6 - 80] (puzzle: Exclusion 6) | – | – | 11.8 | –
AAGGAUAGAGGAUAUACAUAGAUACAGAUUCAUGUGGAACUACAUGAGGAUCACCCAUGUAGAAGGCUAUCCUA [Fiskers Ex 2 - 9] (puzzle: Exclusion 2) | – | – | 35.9 | –
UCACGGGACUAAGGAUAUACAUGAUCCAUUUUUGUAGAAGGUAGAAUGUUAGAUCAUAAACUAAACAUGAGGAUCACCCAUGUU [JR_ExcNG1_Sub089] (Eterna round: R96, puzzle: Exclusion NG 1) | – | – | – | apparent KD of MS2 coat protein [1]: 20.2 nM
GACAUGUGAGGAUAUUGCAUAUAGUUAUAAGUUCAGGGCGGCAAGAAGGCACAUGAGGAUCACCCAUGUACCUU [Eternabot (L2) Solution 81] (Eterna round: R97, puzzle: Exclusion 4) | 18.7 | 15.3 | – | –
AAAAUGUAAGGAUAUGGCCGGGACCCAGGGUUUGGACCCGGCUAGAAGGUACAUGAGGAUCACCCAUGUAAGAA [Excls4-VIII] (puzzle: Exclusion 4) | – | – | 16.1 | –
GGAUCGUAUGUCAGGAUAUACCACUGGAUACAGUGGUAGAAGGGACAUGAGGAUCACCCAUGUGUUAUCGAUCC [Fiskers BMX 4 - 55] (puzzle: Brourd's mod of Exclusion 4) | – | – | 41.5 | –
CGACCACAUGAGGAUCACCCAUGUCAGGAUAUGAGAGCCUUACGAAAGAGACGGCAGCUUAGAAGGGAUGCGGC [Eternabot (L1) Solution 74] (Eterna round: R97, puzzle: Exclusion 1) | 23.3 | 26.9 | – | –
AAACCUUGUGUCAGGAUAUGCAGAGGGAACGCCAGGCAGAAGGGACAUGAGGAUCACCCAUGUACAUUUUAAAC [BmEX4 B.19] (Eterna round: R97, puzzle: Brourd's mod of Exclusion 4) | 487 | 39.2 | – | –
CUCCGGCGUGUAGGAUAUGGAUCCGAUUAGGAUCCAGAAGGACAUGAGGAUCACCCAUGUACAUGUAAACAGUCAUCACCGGAC [salish99_ExNG1_r04_204] (Eterna round: R96, puzzle: Exclusion NG 1) | 155 | 18.7 | – | apparent KD of MS2 coat protein [1]: 10.4 nM
UUUAAUUUUUUUUUUUUACAAGCUUUUUGCUCGUCUUAUACAUGAGGAUCACCCAUGUAGGUGAAGAGUAAAUUAUC [JMF 58] (puzzle: Sensor v3, turn-off variant 2) | – | – | 109 | apparent KD of MS2 coat protein [2]: 19.4 nM; apparent KD of MS2 coat protein [4]: 16.5 nM
GGGUGUGCUAAGGAUAUCGGACCAUCGGGUAACUGAGAAGGUAGCACAUGAGGAUCACCCAUGUGUAACUUGAU [EX6 B.12] (Eterna round: R97, puzzle: Exclusion 6) | 159 | 16 | – | –
GGUCAGACGGUAGGAUAUUCAUAUCGAGUGACCCUUUCAUAACAUGAGGAUCACCCAUGUCGGUGGGAGAAGGGCCGUACGGCG [salish99_ExNG02_R04_008] (Eterna round: R96, puzzle: Exclusion NG 2) | 41 | 33.6 | – | apparent KD of MS2 coat protein [1]: 31.9 nM
CUAUAGUCAGGAUAUCUAAACAGGCCGAGCGUUCGCAGUCGAGAGAAGGGACAUGAGGAUCACCCAUGUCCUCC [Eternabot (L1) Solution 6] (Eterna round: R97, puzzle: Exclusion 4) | 15.2 | 15.6 | – | –
GCAGGCGACUAGGCUCGUCUUAUUUUGAGAAGAUUGAAAACAUGAGGAUCACCCAUGUUUGUGGGAGAGUUGGAGUG [JR_SV3TOV2_Sub013] (puzzle: Sensor v3, turn-off variant 2) | – | – | 73 | apparent KD of MS2 coat protein [2]: 59.4 nM; apparent KD of MS2 coat protein [4]: 65.3 nM
ACGAUGAUCGAAAAGUGUAAACUGACAUGAGGAUCACCCAUGUAGGAUAUGGCUACGAAAAGUAGUCAGAAGGGCAUGUCAUCA [Omei Exc(NG) 3 Av11] (Eterna round: R96, puzzle: Exclusion NG 3) | 51.3 | 47.9 | – | apparent KD of MS2 coat protein [1]: 34.6 nM
UUUAAUUUUUUUUUUUUACAAGCUUUUUGCUCGUCUUAUACAUGAGGAUCACCCAUGUGGGUAAGGGAUAAAUUAUC [JMF 37] (puzzle: Sensor v3, turn-off variant 2) | – | – | 33.4 | apparent KD of MS2 coat protein [2]: 28.5 nM; apparent KD of MS2 coat protein [4]: 35.3 nM
